36 variants from the supplement of paper PMC10567573 can be followed below.

B1: LOC100129726 (parent)
chain: AKAADSPTRNDLESGLGHFSLRVH
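Also: lentivirally expressed fusions sorted by FACS into six bins by GFP to DsRed ratio, PSI derived from sequencing read proportions per bin multiplied by bin number.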

The variants in this data set derive from B1. Nature of the data set: protein stability index of a GFP-peptide fusion (GPS, HEK-293T) (PSI 1-6); higher = more stable. To be noted: c terminus: a fixed tail appended.
For AKAADSPTRNDLESGLGHFSLRSH, the protein stability index amounted to 3.48. Next, AKAADSPTRNDLESGLGHFSLRFH: 2.14. Next, AKAADSPTRNDLESGLGHFSLRNH: 3.43; AKAADSPTRNDLESGLGHFSLRGH: 4.16.

As for AKAADSPTRNDLESGLGHFSLRPH, the protein stability index worked out at 4.13. Turning to AKAADSPTRNDLESGLGHFSLRLH, the protein stability index amounted to 2.88. Take AKAADSPTRNDLESGLGHFSLRHH: the protein stability index was 3.55. Next, AKAADSPTRNDLESGLGHFSLRDH: 4.68. Next, AKAADSPTRNDLESGLGHFSLRMH: 3.29. Turning to AKAADSPTRNDLESGLGHFSLRIH, the protein stability index amounted to 2.42. Turning to AKAADSPTRNDLESGLGHFSLRQH, the protein stability index worked out at 3.58. Take AKAADSPTRNDLESGLGHFSLREH: the protein stability index was 4.69. Next, AKAADSPTRNDLESGLGHFSLRKH: 4.43; AKAADSPTRNDLESGLGHFSLRRH: 4.03. Next, AKAADSPTRNDLESGLGHFSLRTH: 3.49; AKAADSPTRNDLESGLGHFSLRYH: 2.61; AKAADSPTRNDLESGLGHFSLRWH: 2.14.

AKAADSPTRNDLESGLGHFSLRVE: the protein stability index turned out to be 3.75. As for AKAADSPTRNDLESGLGHFSLRVV, the protein stability index was found to be 2.61. Next, AKAADSPTRNDLESGLGHFSLRVL: 2.59; AKAADSPTRNDLESGLGHFSLRVC: 2.49. Next, AKAADSPTRNDLESGLGHFSLRVD: 3.63; AKAADSPTRNDLESGLGHFSLRVR: 2.79; AKAADSPTRNDLESGLGHFSLRVI: 1.9. Next, AKAADSPTRNDLESGLGHFSLRVG: 2.64. For the variant AKAADSPTRNDLESGLGHFSLRVT, the protein stability index amounted to 3.41. On to AKAADSPTRNDLESGLGHFSLRVF, for which the protein stability index was 2.32. Next, AKAADSPTRNDLESGLGHFSLRVP: 3.73; AKAADSPTRNDLESGLGHFSLRVN: 4.15. Turning to AKAADSPTRNDLESGLGHFSLRVQ, the protein stability index was determined as 3.53. AKAADSPTRNDLESGLGHFSLRVA: the protein stability index turned out to be 2.92. Then AKAADSPTRNDLESGLGHFSLRVY, with 1.58; and AKAADSPTRNDLESGLGHFSLRVS, with 3.6; and AKAADSPTRNDLESGLGHFSLRVM, with 2.25. Next, AKAADSPTRNDLESGLGHFSLRVW: 2.09; AKAADSPTRNDLESGLGHFSLRVK: 3.92.
